The term stoichiometry N denotes the number of molecules, sites or subunits per partner or assembly.

Holding throughout (assay): cryo-EM structure; single particle analysis of extended AlgoCIS particles assembled in A. machipongonensis and purified whole, in buffer B (20 mM Tris pH 7.5, 150 mM NaCl); cap 2.5 Å, extended sheath-tube 2.4 Å, baseplate 2.7-2.9 Å, whole particle 4.4 Å
Experiment [1] deals with Alg1 (inner tube protein of AlgoCIS) (Algoriphagus machipongonensis PR1 (endogenous in A. machipongonensis)).
Experiment [2] deals with Alg6 (plug protein of AlgoCIS) (Algoriphagus machipongonensis PR1 (endogenous in A. machipongonensis)).
In experiment [3] the target is Alg8 (central spike protein of AlgoCIS) (Algoriphagus machipongonensis PR1 (endogenous in A. machipongonensis)).
The target in experiment [4] is Alg11 (baseplate wedge protein of AlgoCIS, forms the spike cage) (Algoriphagus machipongonensis PR1 (endogenous in A. machipongonensis)).
Experiment [5] has as its target Alg16A (cap protein of AlgoCIS) (Algoriphagus machipongonensis PR1 (endogenous in A. machipongonensis)).
The target in experiment [6] is Alg16B (cap adaptor protein of AlgoCIS) (Algoriphagus machipongonensis PR1 (endogenous in A. machipongonensis)).

On to “Alg1 (inner tube protein of AlgoCIS) (natural protein)”, for which the stoichiometry N in experiment [1] was 6.
Consider “Alg6 (plug protein of AlgoCIS) (natural protein)”, for which, in experiment [2], the stoichiometry N is 3.
“Alg8 (central spike protein of AlgoCIS) (natural protein)” returned a stoichiometry N in experiment [3] of 3.
For “Alg11 (baseplate wedge protein of AlgoCIS, forms the spike cage) (natural protein)”, the stoichiometry N in experiment [4] came out at 6.
In experiment [5], “Alg16A (cap protein of AlgoCIS) (natural protein)” showed a stoichiometry N of 6.
As for “Alg16B (cap adaptor protein of AlgoCIS) (natural protein)”, in experiment [6], the stoichiometry N worked out at 6.

These data come from article PMC8894135.
